# Experimental data: publication PMC7616478 (Proteins, 2024)
# Legend:
# [1] = molecular target: C-Mad2* (closed conformation of full-length human R133A Mad2) (human) (UniProt Q13257); assay: 15N-CEST + 15N-CPMG relaxation dispersion NMR
# [2] = molecular target: L5I Mad2* (L5I R133A Mad2) (human, UniProt Q13257 1-205, L5I | R133A); assay: NMR titration
# [3] = molecular target: C-Mad2* (closed conformation of full-length human R133A Mad2) (human, UniProt Q13257 1-205, R133A); assay: NMR titration
# Chain of C-Mad2* (closed conformation of full-length human R133A Mad2) (Q13257 whole entry R133A): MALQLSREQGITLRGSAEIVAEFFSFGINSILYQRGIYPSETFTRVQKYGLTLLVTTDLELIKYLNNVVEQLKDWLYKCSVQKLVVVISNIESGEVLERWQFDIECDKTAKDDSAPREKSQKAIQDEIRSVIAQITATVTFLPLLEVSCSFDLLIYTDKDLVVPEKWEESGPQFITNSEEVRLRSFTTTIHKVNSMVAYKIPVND
# Chain of L5I Mad2* (L5I R133A Mad2) (Q13257 whole entry L5I/R133A): as the sequence (Q13257 whole entry R133A) above, with L5I counted along it
molecule,measurement,setting,value
C-Mad2* (closed conformation of full-length human R133A Mad2) (from UniProt Q13257 1-205) (natural protein),Kd,[1],3.4 mM
same,koff,[1],152 s⁻¹
same,kon,[1],44000 M⁻¹ s⁻¹
same,population of the excited state E1 (pE1) at 133 μM,[1],3.5%
SWYSYPPPQRAV [Mad2-binding peptide 1 (MBP1)],binding result,[2],binds
same,binding result,[3],binds
